Assay results reported in paper PMC11507893 (bioRxiv, 2024).
Changes are numbered by the printed parent chain.

How the values were obtained:
[1] = target: T1, Mnl1(C644S), FLAG-tagged (S. cerevisiae, UniProt P38888 21-796, C644S); experiment: cross-linking
T1 sequence (looked up): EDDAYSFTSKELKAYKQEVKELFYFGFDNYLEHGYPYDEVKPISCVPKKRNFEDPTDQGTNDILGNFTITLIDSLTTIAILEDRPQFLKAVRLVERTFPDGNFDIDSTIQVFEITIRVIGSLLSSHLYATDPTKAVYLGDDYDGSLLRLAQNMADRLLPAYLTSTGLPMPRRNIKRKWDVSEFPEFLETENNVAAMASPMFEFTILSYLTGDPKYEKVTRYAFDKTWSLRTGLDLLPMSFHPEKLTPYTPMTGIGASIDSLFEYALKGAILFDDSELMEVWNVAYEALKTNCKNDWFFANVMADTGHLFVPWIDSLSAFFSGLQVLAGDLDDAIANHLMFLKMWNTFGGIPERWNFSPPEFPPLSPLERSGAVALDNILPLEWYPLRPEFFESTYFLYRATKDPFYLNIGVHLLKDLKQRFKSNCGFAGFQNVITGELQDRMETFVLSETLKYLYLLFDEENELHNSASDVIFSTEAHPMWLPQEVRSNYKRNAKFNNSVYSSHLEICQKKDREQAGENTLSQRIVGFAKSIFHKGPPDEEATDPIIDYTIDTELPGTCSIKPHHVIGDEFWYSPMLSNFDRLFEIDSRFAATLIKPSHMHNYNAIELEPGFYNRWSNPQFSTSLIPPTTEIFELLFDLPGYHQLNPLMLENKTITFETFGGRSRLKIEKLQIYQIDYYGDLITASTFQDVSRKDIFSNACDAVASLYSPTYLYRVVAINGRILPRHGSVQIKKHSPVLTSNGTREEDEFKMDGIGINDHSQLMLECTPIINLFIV

[2] = target: T2, Mnl1(C579S), FLAG-tagged (S. cerevisiae, UniProt P38888 21-796, C579S); experiment: cross-linking
T2 sequence (looked up): T1 sequence (looked up) with C559S, S624C

[3] = target: T3, Mnl1 mCTD mutant (L655N, F770Y, M772K), FLAG-tagged (S. cerevisiae, UniProt P38888 21-796, L655N | F770Y | M772K); experiment: co-IP + SEC
T3 sequence (looked up): T1 sequence (looked up) with S624C, L635N, F750Y, M752K

[4] = target: T4, FLAG-tagged Mnl1 (Mnl1-FLAG) (S. cerevisiae, UniProt P38888 21-796); experiment: cryo-EM structure
T4 sequence (looked up): T1 sequence (looked up) with S624C

Measured: binding result

B1: protein disulfide isomerase (Pdi1) (enzyme, S. cerevisiae, UniProt P17967 29-522, looked up)
chain: PEDSAVVKLATDSFNEYIQSHDLVLAEFFAPWCGHCKNMAPEYVKAAETLVEKNITLAQIDCTENQDLCMEHNIPGFPSLKIFKNSDVNNSIDYEGPRTAEAIVQFMIKQSQPAVAVVADLPAYLANETFVTPVIVQSGKIDADFNATFYSMANKHFNDYDFVSAENADDDFKLSIYLPSAMDEPVVYNGKKADIADADVFEKWLQVEALPYFGEIDGSVFAQYVESGLPLGYLFYNDEEELEEYKPLFTELAKKNRGLMNFVSIDARKFGRHAGNLNMKEQFPLFAIHDMTEDLKYGLPQLSEEAFDELSDKIVLESKAIESLVKDFLKGDASPIVKSQEIFENQDSSVFQLVGKNHDEIVNDPKKDVLVLYYAPWCGHCKRLAPTYQELADTYANATSDVLIAKLDHTENDVRGVVIEGYPTIVLYPGGKKSESVVYQGSRSLDSLFDFIKENGHFDVDGKALYEEAQEKAAEEADADAELADEEDAIHDEL
binds: [1] | [2] | [3] | [4]
